Experimental findings from patent US20220306758A1 (Regeneron, published 2022) are described below.

Usually EC50 stands for the concentration that produces a half-maximal response. For orientation: Kd means the free concentration of one partner at which half of the binding sites on the other are occupied at equilibrium, for simple one-to-one binding. The term koff denotes the first-order rate constant of dissociation. As usually defined, the kon is the second-order rate constant of association. The term t½ denotes how long it takes for the measured level to halve.

Positions count from the first letter of the chain named.

Experiment [1] deals with T1, human BCMA on cells (endogenous, on multiple myeloma and lymphoma cell lines) (human, UniProt Q02223 1-184).
T1 sequence: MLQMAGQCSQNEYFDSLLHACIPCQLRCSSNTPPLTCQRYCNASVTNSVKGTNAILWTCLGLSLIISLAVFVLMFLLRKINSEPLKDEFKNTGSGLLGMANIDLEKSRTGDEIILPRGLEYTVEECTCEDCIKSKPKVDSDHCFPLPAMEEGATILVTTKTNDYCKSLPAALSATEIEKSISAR
The experiment in a line: cell-based or functional assay.

Experiment [2] has as its target T2, human CD3 on Jurkat cells and primary human CD8+ T cells (human, UniProt P07766 23-207; P04234 22-171; P20963 22-164; P09693 23-182).
T2 construct: Endogenous CD3 complex on cells; also called hCD3; Jurkat-hCD3
The experiment in a line: flow cytometry on Jurkat cells (human CD3), median EC50, n=5. As for the experimental part:
(§1) Flow cytometric analysis was utilized to determine binding of BCMA×CD3 bispecific antibodies to human and cynomolgus CD3 (Jurkat cells, mfCD3 engineered Jurkat cells, primary human CD8+ and cynomolgus CD8+ T cells). Briefly, 1e05 cells/well were incubated in the presence of FACS wash with block (PBS+1% filtered FBS+5% mouse serum) with a serial dilution of BCMA×CD3 and control antibodies for 30 minutes on ice. After incubation, the cells were washed twice with cold FACS wash (PBS+1% filtered FBS) and bound antibody was detected by incubating with Alexa647-conjugated anti-human secondary antibody on ice for an additional 30 minutes. Wells containing no antibody or secondary only were used as a control. For the detection of monkey and human T cells, a cocktail of human and cynomolgus cross-reactive antibodies to CD4, CD8 and CD16 was added to the anti-human secondary. After incubation, cells were washed, re-suspended in 200 μL cold PBS containing 1% filtered FBS and analyzed by flow cytometry on a BD FACS Canto II. Cells were gated by FSC-H by FSC-A to select singlet events, followed by side and forward scatters to select for live events. For monkey T cells, additional gating on CD8+/CD16− cells was performed.
(§2) EC50 values for FACS binding were calculated using 4-parameter non-linear regression analysis in Prism software.

The target in experiment [3] is T3, cynomolgus CD3 on primary cynomolgus CD8+ T cells (cynomolgus, UniProt Q95LI5 22-198; Q95LI8 22-171; Q95LI7 23-181).
T3 construct: whole, on cells; Endogenous CD3 complex on primary cells; also called Mf (Cyno) CD8+ T cells
The experiment in a line: flow cytometry on primary cynomolgus CD8+ T cells, n=1. On the procedure: as §1, §2
A general note: Flow cytometry measures light scatter and fluorescence of single cells or particles in a stream.

In experiment [4] the target is T1, human BCMA on cells (endogenous, on …). The experiment in a line: cell-based or functional assay. The source holds these as a separate data set.
Experiment [5] concerns the target T4, monkey BCMA-MMH (monkey BCMA with C-terminal myc-myc-hexahistidine tag) (monkey).
T4 construct: The words 'extracellular domain' stand before human BCMA in the sentence and are read as applying to the monkey construct too; also called mfBCMA.mmh
Put plainly: SPR, Biacore, mAb captured by anti-hFc, 25 C. On the procedure: The CM5 Biacore sensor surface was derivatized by amine coupling with a monoclonal mouse anti-human Fc antibody (GE, #BR-1008-39) to capture purified anti-BCMA mAbs and anti-BCMA×anti-CD3 bispecific mAbs. All Biacore binding studies were performed in a buffer composed of 0.01M HEPES pH 7.4, 0.15M NaCl, 3 mM EDTA, 0.05% v/v Surfactant P20 (HBS-ET running buffer). […] Antigen samples were then injected over the anti-BCMA and anti-BCMA×anti-CD3 bispecific mAbs captured surfaces at a flow rate of 30 μL/minute. Antibody-reagent association was monitored for 5 minutes while dissociation in HBS-ET running buffer was monitored for 10 minutes. All of the binding kinetics experiments were performed at 25° C. Kinetic association (kₐ) and dissociation (kd) rate constants were determined by fitting the real-time sensorgrams to a 1:1 binding model using Scrubber 2.0c curve fitting software. Binding dissociation equilibrium constants (KD) and dissociative half-lives (t½) were calculated from the kinetic rate constants as: […]

In experiment [6] the target is T1, human BCMA on cells (endogenous, on …). The experiment in a line: cell-based or functional assay. The source holds these as a separate data set.
For experiment [7] the target is unchanged. The experiment in a line: cell-based or functional assay. The source holds these as a separate data set.
For experiment [8] the target is unchanged. The experiment in a line: cell-based or functional assay. The source holds these as a separate data set.
The target is the same in experiment [9]. Put plainly: flow cytometry on RPMI-8226 cells, Alexa647 conjugate. As for the experimental part: (§3) Cells were then washed and fixed for 25 mins at 4° C. using a 50% solution of BD Cytofix (BD, Cat #554655) diluted in PBS. […] After gating for live cells and single cells, the mean fluorescent intensity (MFI) was determined, and MFI values were plotted in Graphpad Prism using a four-parameter logistic equation over a 10-point response curve to calculate EC₅₀s. The zero condition for each dose-response curve is also included in the analysis as a continuation of the two-fold serial dilution and is represented as the lowest dose. The signal to noise (S/N) is determined by taking the ratio of the mAb25442D-A647 MFI to the Isotype-A647 MFI. (Table 13). The mAb25442D-A647 S/N ranged from 2 to 470 and the EC₅₀ values ranged from 27 to 83 nM. No detectable binding was observed on HEK293 cells.

Experiment [10] shares this target. Put plainly: flow cytometry on NCI-H929 cells, Alexa647 conjugate. As for the experimental part: as §3
Experiment [11] has the same target. Put plainly: flow cytometry on OPM-2 cells, Alexa647 conjugate. As for the experimental part:
as §3

T4 sequence (chain, as listed by the source limits assumed): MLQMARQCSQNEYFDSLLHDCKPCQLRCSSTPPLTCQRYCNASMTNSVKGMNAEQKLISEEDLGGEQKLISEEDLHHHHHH
T2 sequence (P07766 23-207 limits assumed, chain 1 of 4): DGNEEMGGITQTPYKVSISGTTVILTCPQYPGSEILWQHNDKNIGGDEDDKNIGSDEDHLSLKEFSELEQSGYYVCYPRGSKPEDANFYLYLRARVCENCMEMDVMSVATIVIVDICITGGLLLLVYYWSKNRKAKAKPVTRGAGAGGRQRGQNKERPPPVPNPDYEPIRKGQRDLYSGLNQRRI
T2 sequence (P04234 22-171 limits assumed, chain 2 of 4): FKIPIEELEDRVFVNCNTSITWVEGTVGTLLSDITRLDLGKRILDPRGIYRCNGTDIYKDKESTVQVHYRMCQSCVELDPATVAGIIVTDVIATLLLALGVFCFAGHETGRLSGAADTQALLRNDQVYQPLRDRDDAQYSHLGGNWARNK
T2 sequence (P20963 22-164 limits assumed, chain 3 of 4): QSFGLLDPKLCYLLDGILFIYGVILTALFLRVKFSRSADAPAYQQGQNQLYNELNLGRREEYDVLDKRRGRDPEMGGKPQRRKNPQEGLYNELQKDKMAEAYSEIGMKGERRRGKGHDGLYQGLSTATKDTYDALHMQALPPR
T2 sequence (P09693 23-182 limits assumed, chain 4 of 4): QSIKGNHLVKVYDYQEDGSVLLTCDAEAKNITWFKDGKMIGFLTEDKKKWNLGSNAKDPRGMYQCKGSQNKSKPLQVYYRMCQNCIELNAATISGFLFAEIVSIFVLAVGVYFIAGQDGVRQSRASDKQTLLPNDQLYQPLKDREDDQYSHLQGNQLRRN
T3 sequence (Q95LI5 22-198, chain 1 of 3): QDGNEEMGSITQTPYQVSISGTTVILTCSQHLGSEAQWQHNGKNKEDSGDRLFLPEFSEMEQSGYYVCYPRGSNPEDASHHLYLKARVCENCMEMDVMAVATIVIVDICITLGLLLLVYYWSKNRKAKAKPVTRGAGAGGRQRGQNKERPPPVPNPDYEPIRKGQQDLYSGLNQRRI
T3 sequence (Q95LI8 22-171, chain 2 of 3): as the sequence (P04234 22-171 limits assumed, chain 2 of 4) above, with I5V, N15K, I20V, S32T, D33N, I34N, T64A, S74N, V83L, H141R counted along it
T3 sequence (Q95LI7 23-181, chain 3 of 3): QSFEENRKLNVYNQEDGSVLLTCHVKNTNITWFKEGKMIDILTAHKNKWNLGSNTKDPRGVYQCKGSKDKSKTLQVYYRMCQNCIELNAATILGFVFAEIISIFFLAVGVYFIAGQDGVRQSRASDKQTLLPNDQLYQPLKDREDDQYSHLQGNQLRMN

B1: REGN5458 (bsAb25441D), anti-BCMA x anti-CD3 bispecific antibody (bispecific antibody, V domains shown)
VH 1: EVQLVESGGGLVQPGGSLRLSCAASGFTFSNFWMTWVRQAPGKGLEWVANMNQDGSEKYYVDSVKGRFTISRDNAKSSLYLQMNSLRAEDTAVYYCARDREYCISTSCYDDFDYWGQGTLVTVSS
VH 2: EVQLVESGGGLVQPGRSLRLSCAASGFTFDDYSMHWVRQAPGKGLEWVSGISWNSGSKGYADSVKGRFTISRDNAKNSLYLQMNSLRAEDTALYYCAKYGSGYGKFYHYGLDVWGQGTTVTVSS
VL: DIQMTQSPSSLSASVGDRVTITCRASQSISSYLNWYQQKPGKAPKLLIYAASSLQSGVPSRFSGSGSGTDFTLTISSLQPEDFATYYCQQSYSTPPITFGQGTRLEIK
notes: Two different heavy chains paired with a common light chain; human Fc (captured by anti-human Fc in SPR); also called bsAb25441D9; mAb25441D
Consider B1, for which, in experiment [1], the “MFI fold change over cells incubated in media only, U266, 18 h with 67 nM antibody, then stained with the same antibody” value was 1.4 fold and the “MFI fold change over cells incubated in media only, U266, 18 h with 667 nM antibody, then stained with the same antibody” value worked out at 2.3 fold. In experiment [2], the EC50 came out at 15 nM. Also, in [3], a half-maximal response (EC50) required 46.6 nM. Further, in [4], the “MFI fold change over cells incubated in media only, Molp8, 18 h with 67 nM antibody, then stained with the same antibody” value was 2.3 fold and the “MFI fold change over cells incubated in media only, Molp8, 18 h with 667 nM antibody, then stained with the same antibody” value is 4.5 fold. In experiment [5], the “90 nM mfBCMA.mmh Bind (RU)” value is 14.8 RU, the dissociation constant Kd came out at 49.9 nM, the off-rate constant (koff) was determined as 0.00909 s⁻¹ and the kon was 182000 M⁻¹ s⁻¹. Besides, the t½ in [5] came to 1.3 min. Also, in experiment [6], the “EC50 of NFAT-luciferase activity, Jurkat/NFATLuc reporter cells with MOLP-8 cells” value was determined as 1.4 nM; the “EC50 of NFAT-luciferase activity, Jurkat/NFATLuc reporter cells with RPMI-8226 cells” value was 0.61 nM; the “EC50 of NFAT-luciferase activity, Jurkat/NFATLuc reporter cells with Raji cells” value turned out to be 1.6 nM. Moreover, in experiment [7], the “EC50 of NFAT-luciferase activity, Jurkat/NFATLuc reporter cells with Daudi cells” value was 2.1 nM; the “EC50 of NFAT-luciferase activity, Jurkat/NFATLuc reporter cells with MM1-S cells” value was 1.2 nM; the “EC50 of NFAT-luciferase activity, Jurkat/NFATLuc reporter cells with NCI-H929 cells” value is 0.68 nM; the “EC50 of NFAT-luciferase activity, Jurkat/NFATLuc reporter cells with OPM-2 cells” value was 0.66 nM. In [8], the “MFI fold change over cells incubated in media only, NCI-H929, 18 h with 67 nM antibody, then stained with the same antibody” value was determined as 2 fold and the “MFI fold change over cells incubated in media only, NCI-H929, 18 h with 667 nM antibody, then stained with the same antibody” value is 3 fold.

B2: REGN5459 (bsAb25442D), anti-BCMA x anti-CD3 bispecific antibody (bispecific antibody, V domains shown)
VH 1: B1 VH 1
VH 2: B1 VH 2 with K58I, H108Y, L111M
VL: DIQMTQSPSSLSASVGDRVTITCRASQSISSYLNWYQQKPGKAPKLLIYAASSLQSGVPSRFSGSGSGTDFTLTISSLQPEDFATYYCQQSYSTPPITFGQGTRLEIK
notes: also called mAb25442D; mAb25442D-A647
As for B2, the half-maximal effective concentration (EC50) in experiment [9] is 27 nM. This molecule also returned an EC50 in [2] of 558 nM. Besides, in [5], the “90 nM mfBCMA.mmh Bind (RU)” value was 12.7 RU, the dissociation constant (Kd) came out at 38.8 nM, the koff amounted to 0.00864 s⁻¹ and the kon stood at 223000 M⁻¹ s⁻¹. The same molecule registered a t½ in experiment [5] of 1.3 min. In addition, in experiment [6], the “EC50 of NFAT-luciferase activity, Jurkat/NFATLuc reporter cells with MOLP-8 cells” value is 11 nM; the “EC50 of NFAT-luciferase activity, Jurkat/NFATLuc reporter cells with RPMI-8226 cells” value amounted to 2.6 nM; the “EC50 of NFAT-luciferase activity, Jurkat/NFATLuc reporter cells with Raji cells” value was found to be 7.4 nM. Moreover, in experiment [7], the “EC50 of NFAT-luciferase activity, Jurkat/NFATLuc reporter cells with Daudi cells” value was determined as 7.9 nM; the “EC50 of NFAT-luciferase activity, Jurkat/NFATLuc reporter cells with MM1-S cells” value was determined as 4.4 nM; the “EC50 of NFAT-luciferase activity, Jurkat/NFATLuc reporter cells with NCI-H929 cells” value turned out to be 2.7 nM; the “EC50 of NFAT-luciferase activity, Jurkat/NFATLuc reporter cells with OPM-2 cells” value was determined as 2.6 nM. This molecule gave an EC50 in experiment [10] of 79 nM. Further, the concentration giving a half-maximal response (EC50) in [11] turned out to be 57 nM.
